In PMC4996945, “Crosstalk between MSH2–MSH3 and polβ promotes trinucleotide repeat expansion during base excision repair”:

Molecular target: MSH2;MSH3 (Homo sapiens;Homo sapiens, UniProt P43246;P20585 1-934;1-1137, |)
Experiment: gel filtration; 1:1:1 OGG1, MSH2-MSH3, DNA; MSH2-MSH3-DNA peak; 10 mM HEPES pH 8.1, 110 mM NaCl, 1 mM DTT, 0.1 mg/ml BSA, 10% glycerol, 0.25% inositol, 5 mM Mg2+, 2 mM ATP, 2 mM ADP; on ice (EMSA 10 min, gel at 4 °C; footprint binding 15 min, DNase I at 37 °C); 25 nM DNA
Settings: protein: recombinant;recombinant; tags: ;His; copies: 1;1

B1: CAG-duplex (80) with one 8-oxo-G (dsDNA)
DNA 1: CAAGCACGTTGACTACCGTCCAGCAGCAGCAGCAGCAGCAGCAGCAGCAGCAGCAGCAGTTTGAGGCAGAGTCCGAACAC
DNA 2: GTGTTCGGACTCTGCCTCAAACTGCTGCTGCTGCTGCTGCTGCTGCTGCTGCTGCTGCTGGACGGTAGTCAACGTGCTTG
modifications: one 8-oxo-G (stated position 17, exact G not marked in text); complement not given
  binding result: binds
